Here are results for four molecules from article PMC3933668, “The phzA2-G2 Transcript Exhibits Direct RsmA-Mediated Activation in Pseudomonas aeruginosa M18”.

The target in data set [1] is T1, RsmA (Pseudomonas aeruginosa M18, UniProt O69078 1-61). Kind of data set: EMSA; RsmA 0-400 nM; EMSA: 200 mM KCl, 100 mM HEPES pH 7.3, 10 mM MgCl2, 2 ug tRNA, 5% glycerol, 10 mM DTT, room temp 30 min, 1 nM RNA; SPR: 200 mM NaCl, 20 mM Tris-HCl pH 8.0, 1 mM EDTA, 1 mM DTT, 25 C. Particulars: protein: recombinant; tags: C-terminal His tag; chain copies: 2; label: 3' biotin. (Mobility shift assays separate free from complexed probe on a gel.)

The target in data set [2] is T1, RsmA. Kind of data set: SPR; biotin-RNA on SA chip; 200 mM NaCl, 20 mM Tris-HCl pH 8.0, 1 mM EDTA, 1 mM DTT; 25 C; EMSA: 200 mM KCl, 100 mM HEPES pH 7.3, 10 mM MgCl2, 2 ug tRNA, 5% glycerol, 10 mM DTT, room temp 30 min, 1 nM RNA; SPR: 200 mM NaCl, 20 mM Tris-HCl pH 8.0, 1 mM EDTA, 1 mM DTT, 25 C. The conditions noted are these: protein: recombinant; tags: C-terminal His tag; chain copies: 2; label: 3' biotin. (In SPR one partner is held on a chip, and binding of the other changes the refractive index at the surface.)

T1 sequence (O69078 whole entry): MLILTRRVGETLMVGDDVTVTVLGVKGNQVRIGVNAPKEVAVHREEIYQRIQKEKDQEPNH

As for GGGCAACUUUUGCCCGGAAAAAGCUUCACGGCAAUUUCUC (ssRNA) [phz2-S2], in the data set with RsmA [1], the binding result is on record as “no binding”.

In the case of GGCAAUUCGGCAUUAGUUGAAACUUUGGAGACGCUCCGAA (ssRNA) [phz2-S1], the binding result with RsmA [1] is on record as “no binding”.

A word on the Kd: it is the constant that tells how readily two partners part at equilibrium. As to UCUUCUUUCCGGUAUGGAUGCCAGUCGAUUC (ssRNA) [phz2-S3], the dissociation constant Kd with RsmA [2] was 54.5 nM.

For the molecule UCUUCUUUCCGGUAUUUCUGCCAGUCGAUUC (ssRNA) [phz2-S3M], the binding result with RsmA [1] is “no binding”.
